Measurements: the supplement of paper PMC10567573
± gives the standard deviation.

Assay: protein stability index of a GFP-peptide fusion (GPS, HEK-293T) (PSI 1-6); higher = more stable
Conditions: c terminus: a fixed tail appended
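Further: 24-mer peptide tiles fused after GFP, lentivirally expressed, FACS-sorted into six equal bins by GFP/DsRed ratio, decoded by Illumina sequencing, PSI is the read-weighted mean bin number.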

Sequence | protein stability index (treatment: DMSO) | protein stability index (treatment: MLN4924 1 uM, 8 h)
ISNGDFESYTKMCDPGMTAFEPEA [CAMK2A] | 4.48 ± 0.18 | 4.66 ± 0.25
ISVNGDVITIKSESTFKNTEISFI [FABP4] | 2.75 ± 1.1 | 2.11 ± 0.16
IVGWRCRVGQWVRMENVTVLGEDV [GMPPB] | 2.39 ± 0.61 | 2.15 ± 0.18
IVHVEKEEVPEGMEEAAVASVVLP [BCL2L13] | 5.11 ± 0.16 | 5.07 ± 0.19
IVMCVQIKCFHEIITIGYNVYHSY [CDS2] | 3.32 ± 0.42 | 3.36 ± 0.66
IVSILPYFITLGTDLAQQQGGGNG [KCNA4] | 2.92 ± 0.36 | 2.54 ± 0.23
IVVATLPIPVVFVLRHFHLLSDGS [SLC6A17] | 2.92 ± 0.56 | 3.21 ± 0.24
IVVSLQSKLASMSNDFKSVLEVRT [STX5] | 2.7 ± 0.65 | 2.64 ± 0.72
IWAQGWVPAAGGPAPKRGYSSEMK [AUH] | – | 2.9 ± 0.29
KAGFTASPFTNLLNGSSQPTTRNY [CDC14A] | 3.38 ± 0.19 | 3.39 ± 0.18
KAKRRNQEMQQKLVELSAENEKLH [CEBPD] | 4.97 ± 0.67 | 4.8 ± 0.097
KALQMLLSQPVTYQAFRECTLETT [BCL2L13] | 3.24 ± 0.35 | 2.79 ± 0.42
KASLWQFLSSEKQICGTHRQTKKM [TRIM43] | 2.63 ± 0.27 | 2.71 ± 0.24
KATNVVMNYSEIESKVREATNDDP [CLINT1] | 5.35 ± 0.27 | 5.34 ± 0.15
KAVKDLVVLLFETALLSSGFSLED [HSP90AB1] | 2.92 ± 0.17 | 2.88 ± 0.16
KDVRRHLVVHTGCKDFLCQFCAQR [PLAGL1] | 3.44 ± 0.08 | 3.55 ± 0.21
KDYYPINESLASLPLRVSFCPLSL [CLPTM1] | 2.16 ± 0.28 | 2.15 ± 0.096
KERDLRDVGDWRKNIEEKSGMEGR [TNNI2] | 5.07 ± 0.25 | 5.15 ± 0.3
KERILLVTDKTLLICKYDFIMLSC [TPRG1] | 3.06 ± 0.42 | 2.61 ± 0.31
KERQKKDNHNLIERRRRFNINDRI [TFE3] | 3.95 ± 0.36 | 4.08 ± 0.14
KFIKPWESPDEMELDELLKEISRK [PTPRD] | 2.32 ± 0.41 | 2.76 ± 0.38
KGAILTTMLATRNFSAAKSLLNKK [CAMK2B] | 2.91 ± 0.18 | 3.04 ± 0.24

Sequence | protein stability index (treatment: DMSO) | protein stability index (treatment: MLN4924 1 uM, 8 h)
KHSSTSSRIAKGGVDHTKMSLHGA [BTBD10] | 3.66 ± 0.19 | 3.79 ± 0.19
KHWVYVKRGGNCPAPAPLVPQDPD [ZBTB22] | 3.32 ± 0.48 | 3.56 ± 0.43
KIASLLGLLSKTAGFSPDCIMDDA [INTS4] | 2.57 ± 0.58 | 2.19 ± 0.55
KITKVMDVRLDREHRVAGIFPRLS [CLPTM1] | 2.69 ± 0.17 | 2.7 ± 0.36
KKAEQKKKEKIIEDKTFGLKNKKG [ZC3H15] | 4.8 ± 0.31 | 4.92 ± 0.1
KKAPQPAKPRLAERMTTREKKVLE [HDAC6] | 4.58 ± 0.18 | 4.81 ± 0.39
KKIYEAKRFTDAGFEHYDLFFIDG [CDC14A] | 2.36 ± 0.29 | 2.34 ± 0.23
KKLHEEELRDLQVSVESQQVQQVE [PRPH] | 4.13 ± 0.62 | 4.2 ± 0.13
KKPPVTFAEKGELRKSIFSESRKP [TRIM29] | 4.13 ± 0.23 | 4.19 ± 0.19
KKRMRYFDPLRNEYFFDRNRPSFD [KCNA1] | 2.47 ± 0.44 | 2.83 ± 0.19
KKTGKSSTTALGDKQRKANESKGT [ELOA2] | 5.26 ± 0.36 | 5.22 ± 0.17
KLEERFMTLAANHELMLRFKDEYK [CCDC89] | 2.99 ± 0.28 | 2.99 ± 0.43
KLPRKVLQHVSEPQAHQESTRGAA [SPACA9] | 4.59 ± 0.13 | 4.76 ± 0.17
KLWDLRTTKCVRQYEGHVNEYAYL [DCAF4] | 2.38 ± 0.21 | 2.27 ± 0.22
KNHEEEMKEFSNQVVGQVNVEMDA [KRT13] | 5.54 ± 0.079 | 5.44 ± 0.31
KNSMENGRPPDPADWAVMDVVNYF [SAMD13] | 3.3 ± 0.26 | 3.28 ± 0.2
KNSTMVNSEDIFLLLCLKVDNHFN [TRIM43] | 2.98 ± 0.57 | 2.84 ± 0.51
KPPKPPDKPLMPYMRYSRKVWDQV [SMARCE1] | 2.08 ± 0.33 | 2.53 ± 0.36
KPPPRKHTRSWAVLKLLLLLLLFG [LRRC59] | 2.09 ± 0.3 | 2.02 ± 0.26
KPPQNPVDTYDVQVTAPGAPPLQA [TNXB] | 4.84 ± 0.35 | 4.46 ± 0.3
KQRLMENTEDWRPRPGTGQSRSFR [PDLIM7] | 4.18 ± 0.2 | 4.418 ± 0.008
KQTREQLHSISDSVLFLQEFGALM [TRIM29] | 2.44 ± 0.52 | 2.36 ± 0.34

Sequence | protein stability index (treatment: DMSO) | protein stability index (treatment: MLN4924 1 uM, 8 h)
KREREVDEDSEPEREVRAKNGRVD [USP39] | 5.46 ± 0.081 | 5.69 ± 0.12
KRITAHEALKHPWVCQRSTVASMM [CAMK2B] | 2.5 ± 0.39 | 2.51 ± 0.26
KRSWEEHVTHWMGQPFNSDDRNTA [DLC1] | 3.12 ± 0.47 | 3.52 ± 0.52
KRYDGLKYDVKKVEEVVYDLSIRG [TSN] | 3.33 ± 0.27 | 3.29 ± 0.094
KRYGLGAHRGRLNIQAGINENDFY [CPXM2] | 2.45 ± 0.44 | 2.61 ± 0.28
KSHVYMAWNIPMSNPGVDFGDVSE [GALNT9] | 2.65 ± 0.26 | 2.79 ± 0.15
KSKAYTVVGTPCYISPELCEGKPY [NEK8] | 2.83 ± 0.084 | 3.03 ± 0.27
KSKGYGFVSFFNKWDAENAIQQMG [TIA1] | 2.11 ± 0.76 | 1.59 ± 0.3
KSVQCGTWTKHAEGGIFTSPNYPS [NETO1] | 2.88 ± 0.19 | 2.89 ± 0.24
KTHSQELMKESLQTGDLLSTFHTI [PLAGL1] | 3.49 ± 0.27 | 3.64 ± 0.23
KVEKMLISSIKEKYPSHSFIGEES [IMPA1] | 3.26 ± 0.2 | 3.17 ± 0.14
KVFLHERELWLKFHEVGTEMIITK [TBX5] | 2.12 ± 0.19 | 2.33 ± 0.44
KVLGELNILPNTQKVTCFYQPAPY [TENT5D] | 2.5 ± 0.23 | 2.16 ± 0.3
KVLQGGEQEIQFEDFTNTLRELGH [PKD2L1] | 3.08 ± 0.35 | 3.31 ± 0.23
KVVEAHKIVLCAVSHVFMLLFNVK [RHOBTB3] | 2.81 ± 0.64 | 3.07 ± 0.46
KVWSLTGQVAEDRFPESHLPIQTP [TLE6] | 3.58 ± 0.21 | 3.47 ± 0.39
KVYDDMAFRYLSWILFPLLGCYAV [CLPTM1] | 3.15 ± 0.23 | 3.07 ± 0.55
LAARSGAAYGPGARGEDRAGPQSP [TSPAN10] | 5.15 ± 0.22 | 4.9 ± 0.09
LAIDFIDEGRLLLEFDLLIFSFGQ [SOAT2] | 3.35 ± 0.39 | 2.78 ± 0.57
LARLEERSSEFYRVTTEQYQKAAE [CHCHD3] | 4.29 ± 0.27 | 4.29 ± 0.21
LASLVSQGMIQLALSGASQPGPSG [RETREG3] | 2.89 ± 1.2 | 1.99 ± 0.66
